# Measured values: PMC3285296
# B1: HA-tagged hepatic glycogen binding subunit GL of PP1 (HA-GL) (natural protein)
# chain: MMAVDIEYRYNCMAPSLRQERFAFKISPKPSKPLRPCIQLSSKNEASGMVAPAVQEKKVKKRVSFADNQGLALTMVKVFSEFDDPLDMPFNITELLDNIVSLTTAESESFVLDFSQPSADYLDFRNRLQADHVCLENCVLKDKAIAGTVKVQNLAFEKTVKIRMTFDTWKSYTDFPCQYVKDTYAGSDRDTFSFDISLPEKIQSYERMEFAVYYECNGQTYWDSNRGKNYRIIRAELKSTQGMTKPHSGPDLGISFDQFGSPRCSYGLFPEWPSYLGYEKLGPYY
# How the values were obtained:
# Experiment in all cases: co-IP
# [1] = molecular target: Flag-tagged glycogen phosphorylase (GP), wild type (human) (UniProt P06737)
# [2] = molecular target: Flag-tagged glycogen phosphorylase K470Q/K796Q (GP^K2Q) (human) (UniProt P06737)
# [3] = molecular target: Flag-tagged glycogen phosphorylase (GP), wild type (human) (UniProt P06737); remark: listed apart in the source
increase of the co-precipitate with NAM+TSA against untreated cells [1],"PP1α co-immunoprecipitated, against wild type GP [2]",increase of the co-precipitate in 25 mM glucose against glucose free medium [3],Molecule
> 100%,2 fold,,HA-tagged protein phosphatase 1 alpha (HA-PP1α) (from UniProt P62136 1-330) (enzyme)
,,100%,B1
